One assay concerns the target T1, latent TGFβ3 (Homo sapiens (Human), UniProt P10600 21-412, limits assumed).
T1 sequence: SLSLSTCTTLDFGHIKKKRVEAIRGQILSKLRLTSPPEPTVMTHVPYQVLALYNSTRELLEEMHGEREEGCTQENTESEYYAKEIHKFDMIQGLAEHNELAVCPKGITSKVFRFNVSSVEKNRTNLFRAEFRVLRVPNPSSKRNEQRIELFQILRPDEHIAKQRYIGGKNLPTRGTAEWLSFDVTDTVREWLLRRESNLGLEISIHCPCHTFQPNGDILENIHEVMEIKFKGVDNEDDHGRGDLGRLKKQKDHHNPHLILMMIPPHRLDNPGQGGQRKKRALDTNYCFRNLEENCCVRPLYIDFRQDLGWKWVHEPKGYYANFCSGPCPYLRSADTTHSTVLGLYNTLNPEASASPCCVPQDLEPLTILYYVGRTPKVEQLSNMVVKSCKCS
Kind of assay: Octet (bio-layer interferometry). In general terms: Biolayer interferometry detects binding as a change in optical thickness at a sensor tip.

Another assay concerns the target T2, latent TGFβ2 (Chlorocebus aethiops (Green monkey) …, UniProt P61811 20-414).
T2 sequence: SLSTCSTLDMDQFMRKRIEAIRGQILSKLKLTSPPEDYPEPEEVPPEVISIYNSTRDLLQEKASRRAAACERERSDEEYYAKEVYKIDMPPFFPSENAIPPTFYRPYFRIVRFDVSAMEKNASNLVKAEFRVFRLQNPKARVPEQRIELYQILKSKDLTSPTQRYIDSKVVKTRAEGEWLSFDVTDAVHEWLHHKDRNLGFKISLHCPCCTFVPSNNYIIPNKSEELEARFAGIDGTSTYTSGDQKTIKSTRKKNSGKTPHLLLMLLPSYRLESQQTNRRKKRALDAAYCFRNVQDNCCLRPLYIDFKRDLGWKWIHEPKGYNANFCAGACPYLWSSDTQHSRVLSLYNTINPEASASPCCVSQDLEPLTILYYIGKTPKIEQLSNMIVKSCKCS
Nature of the assay: Octet (bio-layer interferometry).

B1: Ab3 (antibody, V domains shown)
VH: EVQLLESGGGLVQPGGSLRLSCAASGFTFRNYAMSWVRQAPGKGLEWVSSISGSGGATYYADSVKGRFTISRDNSKNTLYLQMNSLRAEDTAVYYCARVSSGHWDFDYWGQGTLVTVSS
VL: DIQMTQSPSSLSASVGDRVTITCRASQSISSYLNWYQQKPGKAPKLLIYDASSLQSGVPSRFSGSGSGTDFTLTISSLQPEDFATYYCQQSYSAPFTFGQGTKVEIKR
notes: described as a fully human monoclonal antibody; Ab3-mIgG1 was used in vivo
For the molecule B1, the binding result with latent TGFβ3 and with latent TGFβ2 was “no binding” each time.

The values above are taken from US20240016928A1 (SCHOLAR ROCK, published 2024).
